Source: paper PMC8703375, “Polar Interactions at the Dimer–Dimer Interface of Methionine Adenosyltransferase MAT I Control Tetramerization” (International Journal of Molecular Sciences, 2021)
“And” between values parts separate entries of the source, which are not always exact repeats. Identical values can stand only once.

B1: wild-type MATα1 (SSRL), rat methionine adenosyltransferase catalytic subunit (enzyme)
chain: not shown
notes: methionine adenosyltransferase catalytic subunit MATα1, rat; the rat MATα1 ORF in plasmid pSSRL-T7N; Found as homo-dimers (MAT III) and homo-tetramers (MAT I) in an equilibrium that depends on protein concentration; also called MAT I (homo-tetramer); MAT III (homo-dimer); source: E. coli BL21(DE3), IPTG-induced, in soluble fraction
B2: MATα1 R85L–E112L double mutant (enzyme)
chain: not shown
notes: methionine adenosyltransferase catalytic subunit MATα1, rat; ORF of pSSRL-T7N with two point mutations; source: E. coli BL21(DE3), IPTG-induced, in soluble fraction
B3: MATα1 R85L mutant (enzyme)
chain: not shown
notes: methionine adenosyltransferase catalytic subunit MATα1, rat; ORF of pSSRL-T7N with a point mutation; source: E. coli BL21(DE3), IPTG-induced, in soluble fraction
B4: MATα1 R85E mutant (enzyme)
chain: not shown
notes: as for B3
B5: MATα1 T63V mutant (enzyme)
chain: not shown
notes: as for B3
B6: MATα1 Q81T mutant (enzyme)
chain: not shown
notes: as for B3
B7: MATα1 E112L mutant (enzyme)
chain: not shown
notes: as for B3
B8: MATα1 N106A mutant (enzyme)
chain: not shown
notes: as for B3
B9: MATα1 R85L–T63V double mutant (enzyme)
chain: not shown
notes: as for B2

Target: the molecule itself
Assay: SEC; analytical gel filtration (AGFC): soluble fractions of E. coli at 0.5 mg/mL (100 µL) on Superose 12 10/30 HR in 50 mM Tris/HCl pH 8, 10 mM MgSO4, 1 mM EDTA, 150 mM KCl, 0.3 mL/min; fractions read by dot-blot with anti-MATα1 antiserum; homo-dimers and homo-tetramers separated by size

| Protein | stoichiometry N |
| --- | --- |
| B1 | 2 and 4 |

Target: the molecule itself
Assay: hydrophobic chromatography on phenyl Sepharose; soluble fractions of E. coli at 0.5 mg/mL (2 mL) on phenyl Sepharose in 50 mM Tris/HCl pH 8, 10 mM MgSO4, 1 mM EDTA; tetramers in the flowthrough, dimers eluted with 50% (v/v) DMSO; dot-blot with anti-MATα1 antiserum, dimer/tetramer ratio by densitometry

| Protein | stoichiometry N |
| --- | --- |
| B2 | 2 |
| B3 | 2 and 4 |
| B4 | 2 |
| B5 | 2 |
| B6 | 4 |
| B7 | 4 |
| B8 | 4 |
| B9 | 2 |
